Assay [1] deals with T1, S100A4 (Homo sapiens, UniProt P26447).
T1 construct: We used full-length S100A4 for this analysis; made in house; host or cells: Escherichia coli BL21(DE3)
The assay can be described thus: Quin-2 fluorescence, Ca^2+ dissociation from S100A4 in the presence of target peptides. Format: binding. The method, then:
Ca^2+ dissociation measurements for wild-type S100A4, using Quin-2 as described above, were repeated as a control for the effect of target peptides on this process. On mixing 10 μM S100A4 in the presence of Ca^2+ with 100 μM Quin-2, the observed profile was fitted to a single exponential with kobs = 17 s^− 1 (Fig. 5a; cf. k− 1 in Scheme 1).
Fig. 5 Dissociation of Ca^2+ from S100A4 in the absence and in the presence of target peptides monitored using Quin-2 fluorescence. (a) Mixed with 100 μM Quin-2 was 10 μM S100A4 + 50 μM Ca^2+ (stopped-flow reaction chamber concentrations). A superposed fit to a single exponential yields kobs = 17 s^− 1. […] (d) As in (a), but with 2.5 μM M200 premixed with 5 μM S100A4. A biphasic exponential fit yielded rate constants of 13 s^− 1 (A = 26%) and 0.30 s^− 1 (A = 74%). […] Experiments were carried out in either 20 mM NaCl, 20 mM Tris, 1 mM DTT, and 100 μM Ca^2+ at pH 7.5 and 20 °C (a and b; cf. Malashkevich et al.[17]), or 100 mM NaCl, 10 mM Hepes, and 100 μM Ca^2+ at pH 7.5 and 20 °C (c and d). […] Rate constants were unaffected by the inclusion of 1 mM Mg^2+.
Stopped-flow measurements were carried out using an SX18-MV apparatus (Applied Photophysics Ltd., Leatherhead, UK) with a dead time of 1.5 ms.[40] Records were generally captured on a logarithmic time base. Absorption (turbidity) measurements were usually recorded using a 10-mm pathlength, while fluorescence was recorded with a 2-mm pathlength for excitation and emission. The stated concentrations of components refer to the reaction chamber after mixing, unless otherwise indicated. Tyrosine fluorescence was excited at 280 nm, and the emission was collected through a UG11 bandpass filter plus a 305-nm longpass filter.[18] Fluorescein fluorescence was excited at 480 nm, and the emission was detected through a 515-nm longpass filter. Quin-2 fluorescence was measured by excitation at 336 nm, and emission was collected with a 455-nm longpass filter. For simultaneous recording of light scatter, a second channel was monitored through a UG11 filter. Rate constants were obtained by fitting to single-exponential or double-exponential functions using Kaleidagraph (Synergy Software) or Applied Photophysics Pro-Data software. Modeling of kinetic schemes was performed using Berkeley Madonna software.

For assay [2], the target named is T1, S100A4. The assay can be described thus: Summary of rate and equilibrium constants defined according to Scheme 1. Format: binding. An excerpt: The interaction of myosin tail fragments (M) with S100A4 depends on [Ca^2+], with little detectable binding in the absence of Ca^2+.[2,7,17] Scheme 1 presents a minimal pathway describing the thermodynamics and kinetics of this interaction, where arrow lengths indicate the approximate position of the equilibria involved.
[formula] Scheme 1 Ca2+ and myosin peptide (M) binding to S100A4.
The binding of Ca^2+ and a target peptide to S100A4, as shown in Scheme 1, is thermodynamically coupled so that K1K2 = K0K3. For simplicity, we assume a 1:1 stoichiometry and independent binding sites, which are unlikely to be true at least for the longer fragments. However, the trends in binding remain valid for more complex cases. Binding of target peptides to S100A4 in the absence of Ca^2+ is weak (K0 > 100 μM), while binding of target peptides to S100A4 in the presence of Ca^2+ (K2) is around a micromolar or less for longer fragments. Knowing that Ca^2+ binding to S100A4 has K1 = 2–5 μM (from the ITC data above and the literature[14,17,18]) requires that Ca^2+ binding to the M–S100A4 complex be very tight (K3 < 0.15 μM and even lower for M200). The latter cannot be easily determined directly as it requires protein concentrations greater than K0 (i.e., >>100 μM) so that the proteins remain bound together throughout the titration with Ca^2+. However, K3 is readily determined by calculation because values or limits for K0, K1, and K2 are available (Table 2). This aspect is addressed further below for M200, which has the complication of forming filaments at the ionic strength used.

Where [3] appears, read: 2.5 μM M200 premixed with 5 μM S100A4.

These results are taken from article PMC3025356, “Mechanism of the Ca^2+-Dependent Interaction between S100A4 and Tail Fragments of Nonmuscle Myosin Heavy Chain IIA” (Journal of Molecular Biology, 2011).

T1 sequence (P26447 whole entry): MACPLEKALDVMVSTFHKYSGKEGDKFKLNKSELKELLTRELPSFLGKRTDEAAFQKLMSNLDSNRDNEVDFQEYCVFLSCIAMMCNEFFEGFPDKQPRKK

B1: M200: His-tagged human NM-MHC IIA residues Q1761-E1960, V1913I substitution (protein, UniProt P35579 1761-1960, looked up, variant V1913I)
chain: QINTDLNLERSHAQKNENARQQLERQNKELKVKLQEMEGTVKSKYKASITALEAKIAQLEEQLDNETKERQAACKQVRRTEKKLKDVLLQVDDERRNAEQYKDQADKASTRLKQLKRQLEEAEEEAQRANASRRKLQRELEDATETADAMNREISSLKNKLRRGDLPFVVPRRMARKGAGDGSDEEVDGKADGAEAKPAE
modifications: His tag
notes: His-tagged human NM-MHC IIA residues Q1761-E1960, V1913I substitution
With B1, in assay [1] (setting [3]), the fast-phase amplitude turned out to be 26% and the slow-phase amplitude worked out at 74%. Also, the slow-phase rate constant in assay [1] (2.5 μM M200 premixed with 5 μM S100A4, 100 mM NaCl) was determined as 0.30 s^− 1. In addition, in assay [1] (2.5 μM M200 premixed with 5 μM S100A4, 100 mM NaCl, 10 mM Hepes, 100 μM Ca^2+, pH 7.5, 20 °C), the fast-phase rate constant is listed as 13 s^− 1. In assay [1] (in presence of coiled-coil fragments), the “slower release of Ca^2+” value is recorded as 0.3–0.5 s^− 1. Also, in assay [1] (peptide–S100A4–Ca^2+ complex), the “Ca^2+ dissociation rate constant from complex (k− 3), comparison” value was determined as 0.3 s^− 1. The same molecule returned a k3 in assay [2] (Ca^2+ association to peptide–S100A4) greater than 2000 μM^− 1 s^− 1. Further, the Kd in assay [2] (Ca^2+ binding to peptide–S100A4, limit from K3 = K1K2/K0, read-out: K3) was less than 0.15 nM. For the same molecule, the “k− 3” value in assay [2] (Ca^2+ dissociation from peptide–S100A4–Ca^2+) was 0.3 s^− 1. For the same molecule, the “k− 2” value in assay [2] (peptide dissociation from S100A4–Ca^2+) is recorded as less than 0.3 s^− 1.
